Tests used:
[1] = target: phosphorylated PD1 ITSM peptide; test: ELISA; peptides coated at 0.5 µg/ml on Nunc MaxiSorp plates; His-tagged SH2 protein from 10 µg/ml with 1:3 serial dilutions in PBS 0.5% BSA; detected with anti-His-tag antibody, absorbance at 450 nm
[2] = target: phosphorylated PD1 ITIM peptide; test: as above

Row | Substance | EC50 [1] | EC50 [2]
1 | C-terminal SH2 domain of SHP2 (domain or fragment) | 1.85 nM | 5.56 nM
2 | dual SH2 domains of SHP1 (domain or fragment) | 15.3 nM | 21.4 nM
3 | dual SH2 domains of SHP2 (domain or fragment) | 1.24 nM | 1.69 nM

Results, then the substance that gave them:

Row | EC50 [1] | EC50 [2] | Substance
4 | 1.69 nM | 33.7 nM | C-terminal SH2 domain of SHP1 (domain or fragment)
5 | 4.58 nM | 12 nM | N-terminal SH2 domain of SHP2 (domain or fragment)
